Here are results for 1 molecule from patent US7732133B2, “Screening methods for biologically active ligands” (Chugai Seiyaku Kabushiki Kaisha, priority 2000, dated 2010).

The target in this assay is T1, chimeric LIF receptor (human LIF receptor and human gp130 / mouse G-CSF receptor) in Ba/F3 cell line LIG (Homo sapiens, UniProt P40189+P42702).
T1 construct: from the 1st to the 833rd amino acid residues; expressed in transfected cells; host or cells: mouse Ba/F3 cells co-transfected with pCV-cLIFR and pCV-cgp130, clone LIG#47 = LIG
T1 sequence (P42702 45-833): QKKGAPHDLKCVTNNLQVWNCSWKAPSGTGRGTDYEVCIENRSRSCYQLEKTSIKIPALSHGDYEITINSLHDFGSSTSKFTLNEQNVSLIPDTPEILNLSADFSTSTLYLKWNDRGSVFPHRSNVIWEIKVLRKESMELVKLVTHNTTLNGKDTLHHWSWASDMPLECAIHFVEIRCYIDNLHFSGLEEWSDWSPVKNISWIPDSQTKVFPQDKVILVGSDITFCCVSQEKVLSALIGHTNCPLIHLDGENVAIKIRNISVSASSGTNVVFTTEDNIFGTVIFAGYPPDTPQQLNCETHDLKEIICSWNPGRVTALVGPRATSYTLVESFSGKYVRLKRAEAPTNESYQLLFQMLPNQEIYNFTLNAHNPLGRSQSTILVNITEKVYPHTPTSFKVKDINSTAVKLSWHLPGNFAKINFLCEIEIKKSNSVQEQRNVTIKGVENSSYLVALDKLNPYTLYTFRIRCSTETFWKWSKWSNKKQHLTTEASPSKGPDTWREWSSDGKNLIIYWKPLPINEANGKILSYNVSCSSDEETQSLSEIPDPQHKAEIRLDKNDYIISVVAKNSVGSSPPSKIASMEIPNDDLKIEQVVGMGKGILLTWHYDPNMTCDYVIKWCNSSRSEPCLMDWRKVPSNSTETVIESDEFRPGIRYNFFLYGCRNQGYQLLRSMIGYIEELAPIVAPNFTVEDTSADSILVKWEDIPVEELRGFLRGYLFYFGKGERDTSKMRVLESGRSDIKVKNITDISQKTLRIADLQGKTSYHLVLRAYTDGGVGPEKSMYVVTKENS
T1 sequence (P40189 23-619): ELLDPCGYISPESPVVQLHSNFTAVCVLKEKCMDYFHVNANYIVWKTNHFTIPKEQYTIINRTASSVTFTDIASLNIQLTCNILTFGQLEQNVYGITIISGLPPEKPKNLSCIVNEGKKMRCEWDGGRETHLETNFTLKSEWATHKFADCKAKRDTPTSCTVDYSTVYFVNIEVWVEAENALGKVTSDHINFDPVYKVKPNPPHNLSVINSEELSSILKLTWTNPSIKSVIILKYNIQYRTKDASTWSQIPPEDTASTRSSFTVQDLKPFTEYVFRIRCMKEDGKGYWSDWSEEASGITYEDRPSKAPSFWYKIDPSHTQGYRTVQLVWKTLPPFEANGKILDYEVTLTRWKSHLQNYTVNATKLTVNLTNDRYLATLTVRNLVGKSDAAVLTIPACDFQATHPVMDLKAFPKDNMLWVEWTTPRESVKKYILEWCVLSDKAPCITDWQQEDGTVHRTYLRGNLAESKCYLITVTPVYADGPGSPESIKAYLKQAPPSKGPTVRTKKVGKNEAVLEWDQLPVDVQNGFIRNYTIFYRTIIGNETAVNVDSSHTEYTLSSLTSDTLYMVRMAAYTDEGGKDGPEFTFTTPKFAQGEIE
T1 sequence (P40223 627-837 partner limits assumed): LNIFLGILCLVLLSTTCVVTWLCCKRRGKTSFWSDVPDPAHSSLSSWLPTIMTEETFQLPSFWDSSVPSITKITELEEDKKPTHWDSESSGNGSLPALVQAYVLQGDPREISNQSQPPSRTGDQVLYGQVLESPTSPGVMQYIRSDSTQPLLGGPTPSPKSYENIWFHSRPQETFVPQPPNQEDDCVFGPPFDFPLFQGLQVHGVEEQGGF
Kind of assay: Growth response of chimeric LIF receptor-expressing Ba/F3 cell line LIG (WST-8). The format is cell-based. The note with it: 72 hours culture, WST-8 absorbance. The text has this:
Chimeric receptor DNAs were constructed by linking cDNA fragments encoding human LIF receptor (from the 1st to the 833rd amino acid residues; Gearing, D P. et al. […] EMBO J., 10, 2839-2848) and human gp130 (from the 1st to the 619th amino acid residues; Hibi, M. et al. (1990) Cell, 63, 1149-1157) with the transmembrane and intracellular domains (from the 602nd to the 813th amino acid residues; Fukunaga, R. et al. (1990) Cell 61, 341-350) of mouse G-CSF receptor, respectively. These constructs were inserted downstream of the HEF1α promoter of the mammalian expression vector pCV to construct chimeric receptors expression vectors, pCV-cLIFR and pCV-cgp130, respectively. pCV-cLIFR and pCV-cgp130 were linearized with Pvu I (Takara Shuzo), respectively, extracted with phenol and chloroform, and purified by ethanol precipitation. […]
The cells were washed twice with Media A, and were suspended in Media A to give a cell density of 5×10^4 cells/mL. […] After the culture, 10 μL/well WST-8 reagent (Cell Count Reagent SF; Nacalai Tesque) was added, and pre-reaction absorbance at a measurement wavelength of 450 nm and a control wavelength of 655 nm was measured using microplate reader (Model 3550, Bio Rad). The plate was incubated for two hours in a CO2 incubator (CO2 concentration, 5%), and post-reaction absorbance was measured as above. […]

B1: human CNTF: human ciliary neurotrophic factor (Genzyme) (protein, UniProt P26441 1-200, looked up)
Ciliary neurotrophic factor: MAFTEHSPLTPHRRDLCSRSIWLARKIRSDLTALTESYVKHQGLNKNINLDSADGMPVASTDQWSELTEAERLQENLQAYRTFHVLLARLLEDQQVHFTPTEGDFHQAIHTLLLQVAAFAYQIEELMILLEYKIPRNEADGMPINVGDGGLFEKKLWGLKVLQELSQWTVRSIHDLRFISSHQTGIPARGSHYIANNKKM
Take B1: the “concentration at which an evident growth reaction was observed” value is reported as more than 10 ng/mL.
